± gives the uncertainty stated by the source.

The nature of the data set: amyloid nucleation score (Sup35N fusion, yeast selection) (log enrichment); library NNK2; higher = more nucleation; inactive = no reads after selection. The method in brief: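 Peptides of 20 random codons fused to Sup35N were expressed in psi-negative yeast, induced 24 hours with 100 μM copper sulfate, then grown 7 days at 30°C on medium lacking adenine and uracil. Input and output plasmid inserts were Illumina-sequenced. Nucleation score is the DiMSum log enrichment of output over input reads, centred on the mode score of non-aggregating sequences, excluding sequences with under 100 input reads. Random libraries had three technical output replicates.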
In the case of AKLLSAVVWDCHWV, the amyloid nucleation score worked out at 5.17 ± 0.055. Take AKYRLVVLSEFYSLTPRVLD: the amyloid nucleation score is -0.107 ± 1. The result for ALEMSMGKCFWGLVVVIMRW reads -0.899 ± 0.36. In turn, ALGHIQLKLHCWDYGKRCAS gave an amyloid nucleation score of 0.623 ± 0.25.

Turning to ALGTEFSVPKFTDGVNMAAR, the amyloid nucleation score was -0.451 ± 0.48. ALKSCVLNDKVRRFLAWRLG returned an amyloid nucleation score of -0.183 ± 0.54.

On to ALLVRVIRYRGSRNESRCPA, for which the amyloid nucleation score turned out to be 1.42 ± 0.34. Regarding ALLYYSMCCRFMRPTSAYHV, the amyloid nucleation score turned out to be 0.246 ± 1.1. Substance ALMSCLLCVHWRLDSATGGR displayed an amyloid nucleation score of 5.64 ± 0.09. Substance ALMVEDRH returned an amyloid nucleation score of 0.382 ± 0.8. With ALNDAGYT, the amyloid nucleation score was -0.656 ± 0.27. ALSDCL registered an amyloid nucleation score of -0.427 ± 0.45. Turning to ALSFYNY, the amyloid nucleation score is -0.282 ± 0.76. In turn, ALTFTGV registered an amyloid nucleation score of 0.286 ± 0.41.

ALWGF showed an amyloid nucleation score of -0.235 ± 0.38.

In the case of ALYMDVRL, the amyloid nucleation score came to 1.53 ± 0.19. For the substance ALYRSGHLMLTVNGGCWWDF, the amyloid nucleation score turned out to be 0.45 ± 0.8. AMLDP yielded an amyloid nucleation score of -0.191 ± 0.41. With AMTVSWWCCLMYVDMG, the amyloid nucleation score came to 10.59 ± 0.037. Regarding AMYINWSLFVKLSRRMRYQR, the amyloid nucleation score result was “inactive”. ANKKIDSGNGLLDFQQNSQK yielded an amyloid nucleation score of -0.249 ± 1.

ANNRGVSLDPGVHCVGVLLK showed an amyloid nucleation score of 0.551 ± 0.51. ANYTCTLTSL registered an amyloid nucleation score of -0.056 ± 0.21. In turn, APLNLSFIHPTFIWLYCLLG registered an amyloid nucleation score of 4.27 ± 0.05.

Substance ARIAETSRYKRSENSLSLV had an amyloid nucleation score of -0.88 ± 0.76.

In turn, ARNIGDCRDVSCDWCFSYAF came in with an amyloid nucleation score of 5.13 ± 0.064. Regarding ARSPCCLYQMHIYFAKAFAD, the amyloid nucleation score was -0.599 ± 0.33. Then ASAGCTTGTLGGPHHRHMIV, with 0.523 ± 0.26; and ASDVKGSANDVVGFWVLPDQ, with 5.907 ± 0.049. Substance ASGDGLNFWPFRSPTDAQRA displayed an amyloid nucleation score of 0.775 ± 0.5. The substance ASGVNFGT came in with an amyloid nucleation score of -0.215 ± 0.45. For the substance ASSYMRWVEARTRYLACAEN, the amyloid nucleation score worked out at 4.665 ± 0.046. Substance ASVENGSALIIRESDMSGGN returned an amyloid nucleation score of 0.556 ± 0.43. With ASVIQGVRLLFFRNLARSTS, the amyloid nucleation score stood at 0.011 ± 0.79.

Substance ASVKSILVYGGCTKWFFPHF had an amyloid nucleation score of 4.11 ± 0.062. In the case of ASWKFMFNCSKISRRPNTIT, the amyloid nucleation score was determined as 0.148 ± 1. For the substance ASYRKWNTCPIMYEVSCRYY, the amyloid nucleation score entry is “inactive”.

In turn, ATCSPSVSRVLGLCSWECFR registered an amyloid nucleation score of -0.382 ± 0.76. As to ATIWCCRVKGQVGSFNL, the amyloid nucleation score stood at 0.868 ± 0.14. ATNNPVMNFAGLAKECFAYM returned an amyloid nucleation score of -0.106 ± 0.79. Consider ATVFF, for which the amyloid nucleation score came out at 0.768 ± 0.28.

In the case of ATVSDYKVHGSDLFSFTVND, the amyloid nucleation score was 8.299 ± 0.058. ATYINLVINSKSARLFLICG gave an amyloid nucleation score of 4.732 ± 0.036. Consider AVAVACLDH, for which the amyloid nucleation score amounted to 0.713 ± 0.58. AVCITFLSSCAIFFDSPVRV gave an amyloid nucleation score of 6.409 ± 0.047. For the substance AVCWYNVQVRSSRNLYGQPK, the amyloid nucleation score was 0.221 ± 0.5. Consider AVFNGFKNNSLV, for which the amyloid nucleation score is -0.146 ± 1.

AVGNNN gave an amyloid nucleation score of -1.11 ± 0.74. Then AVIDIIKRTSCTCDESCCIR, with 0.415 ± 0.31; and AVIMRFVYYDAYWGLWMVKE, with 0.228 ± 1; and AVLSITMKGVVWKGLSNLCC, with “inactive”. As for AVRYSLFF, the amyloid nucleation score worked out at 5.09 ± 0.054. In turn, AVSFRFIGVYRGM showed an amyloid nucleation score of 3.95 ± 0.12. The substance AWACYSECQDIRGNYSEVVL gave an amyloid nucleation score of -0.671 ± 0.48. The result for AWDRDVNDENLVSIYMCRKL reads -0.233 ± 0.32; that for AWGHIHAVPMYNALLYNSHD, 0.695 ± 0.66.

Consider AWLLTLPKLYSLEC, for which the amyloid nucleation score is -0.434 ± 0.6. The substance AWSVIEGFQHREAFVTYRGQ yielded an amyloid nucleation score of 3.7 ± 0.063. Take AYCCINLHYNLKVS: the amyloid nucleation score amounted to 0.665 ± 0.65. Take AYDFGVA: the amyloid nucleation score is -0.263 ± 1.1. Then AYFKYCSSLRGSIRDNRADW, with 0.113 ± 0.63. Regarding AYHDYLSRGGTHVVVCYYLS, the amyloid nucleation score entry was “inactive”. AYRSDCIRHGGPFAGYNICI: the amyloid nucleation score is 0.044 ± 1.1.

As for AYSDNTFRQCSISVL, the amyloid nucleation score is 0.218 ± 0.8.

CAGPPLLAKVGWIIMYSLVV: the amyloid nucleation score amounted to 0.258 ± 0.55. For the substance CAIAWRMPLDRPPLKE, the amyloid nucleation score is -0.627 ± 0.76.

In the case of CARNTIAWVSNGMEFGSTGG, the amyloid nucleation score was -0.582 ± 0.76.

CAVDLFGVAIRALMFRSWGC: the amyloid nucleation score result was “inactive”.

Consider CAYGLFVNVFSVDADLRYKY, for which the amyloid nucleation score came out at 7.544 ± 0.022. Regarding CCMCCNDYCRPCFREGVWIG, the amyloid nucleation score was -0.121 ± 1.1. Then CCSFNLISLYSKVRARSELP, with 8.765 ± 0.029. CCVEPVVRDVEVKIRSVVMN came in with an amyloid nucleation score of 0.123 ± 0.56.

For CCVMVELLVYFPM, the amyloid nucleation score was found to be 1.88 ± 0.098.

For CDANM, the amyloid nucleation score came out at 0.785 ± 0.51. For CDFMYRLMSTYTHTFLVSLR, the amyloid nucleation score turned out to be 1.41 ± 0.14. In turn, CDGTLCWKPGWYGDQKFERR registered an amyloid nucleation score of 1.32 ± 0.36. The result for CDLIASQSVIAIVNIMIRHV reads 6.63 ± 0.062. As to CDSAAFRPYLFSAENLSLYK, the amyloid nucleation score worked out at 0.53 ± 0.66. Consider CDSDSLGVTYVDDDCGYNYC, for which the amyloid nucleation score was -1.03 ± 0.55. The result for CDSKVENIWVDLNEMYFFCN reads 2.54 ± 0.17. CDVNYL had an amyloid nucleation score of -0.681 ± 0.3. CEHDCSPTYDGLSYASFVRE showed an amyloid nucleation score of 0.219 ± 0.5. CFAGLFLLSSEFFYRLTSRR showed an amyloid nucleation score of 1.58 ± 0.12. The substance CFCLPSNSNI had an amyloid nucleation score of 1.19 ± 0.09. Substance CFCMINTCYSVINSFTYYGK displayed an amyloid nucleation score of 8.047 ± 0.066. The result for CFDCNIRGSVWKVYISLIVG reads “inactive”; that for CFEVFRFRRNRSLISPYQRM, 0.612 ± 0.62.

CFGISSS came in with an amyloid nucleation score of -1.12 ± 0.36. Then CFGRMVTSNSSDLRYSNDRL, with 1.56 ± 0.097; and CFHVITVNPGLQ, with 1.37 ± 0.39; and CFLTNRTRNSYRPSGKPLDM, with -0.702 ± 0.61. As to CFNTTNEMRSTSSWLRYGSV, the amyloid nucleation score turned out to be 3.83 ± 0.054. CFPPFLC gave an amyloid nucleation score of 0.13 ± 1.1. With CFRFLGREECKLTFGSDEMI, the amyloid nucleation score result was “inactive”. The result for CFTCHTIYCVYSKFKRDMDR reads 3.56 ± 0.047; that for CFTGFRVIMVNICEWCVVVS, 3.9 ± 0.098. Substance CFVYLDLLYMEMMYHRQVAY had an amyloid nucleation score of -0.552 ± 0.34.

Regarding CGATQHSGTQVDLKLGFI, the amyloid nucleation score is -0.321 ± 1.1. Regarding CGNSHMYMNAGDFT, the amyloid nucleation score is -0.293 ± 0.79. The result for CGVASSHFDGLLNR reads 2.58 ± 0.12; that for CGVPNYQLVVEWMMTNRVGN, -0.888 ± 0.78; that for CGWGYLTCPSRTVVWARAGV, 1.35 ± 0.25. Then CGYLRDTWWFFCVTLRNRGV, with 1.12 ± 0.27; and CHGRGISYQLLQNRNQQP, with 0.08 ± 0.79; and CHIGN, with “inactive”. CHLFVFLGLPRQWVKSRPYA displayed an amyloid nucleation score of 0.18 ± 0.22. CHSNKSCRSHIEEI: the amyloid nucleation score is -0.377 ± 0.5. With CHSRLLEYGENCNRIEYCLC, the amyloid nucleation score is -0.459 ± 0.27. The result for CIDVSLFNGHACWIVCFSPV reads 5.48 ± 0.045. Take CIELLYEYAIDLQAWVLLER: the amyloid nucleation score stood at 0.389 ± 0.66.

With CIEMFFETVFTKGLSRYACW, the amyloid nucleation score is -0.55 ± 0.3. In the case of CIFFLVV, the amyloid nucleation score is 4.79 ± 0.071. On to CIGSLNVAVW, for which the amyloid nucleation score was determined as 0.152 ± 0.21.

CIGSRRGQSTSSVYRWSHYL registered an amyloid nucleation score of 0.192 ± 0.46. Consider CIINNKIQVAVKNDYLDHRE, for which the amyloid nucleation score amounted to 4.69 ± 0.1. The substance CILLTGPSYSLKLAYSDCLS displayed an amyloid nucleation score of -1.15 ± 0.43. In the case of CISSMVALMGGPWNEMLGTW, the amyloid nucleation score was 0.767 ± 0.74.

CISTYN registered an amyloid nucleation score of -0.822 ± 0.44. With CIYMSRSRRKCGCSLGTRYV, the amyloid nucleation score is -0.393 ± 1. As to CKCPYFLCIRFWDVDSAMLS, the amyloid nucleation score is 2.21 ± 0.076.

Take CKEDIISSEWYLSVGFA: the amyloid nucleation score result is “inactive”. The result for CKLIFYTYPDYIYILIVKSS reads “inactive”; that for CKRFFYFLGIPATPDRSAFS, -0.588 ± 0.76; that for CKRSWVSYMHW, -0.593 ± 1.1. Substance CKSFNSFSETPKYAKVVPRA came in with an amyloid nucleation score of 0.633 ± 0.56. Take CLGFGRSSPTGYNTCVVRNY: the amyloid nucleation score was -0.493 ± 1.1.

Consider CLGRLMVYSAYYVHLYGVTI, for which the amyloid nucleation score is -1.29 ± 0.62.

In turn, CLGTWPNLLGSISTMYAD came in with an amyloid nucleation score of 0.854 ± 0.53. For the substance CLIVFIADTAAYIKVSMSSV, the amyloid nucleation score result is “inactive”.

In turn, CLLWVAQYVQAMEGVALSVG displayed an amyloid nucleation score of 1.5 ± 0.21. CLNCI came in with an amyloid nucleation score of -0.497 ± 1. With CLNWKYKNRELQVFNDSRVV, the amyloid nucleation score was -2.77 ± 0.75. Then CLPGSH, with 0.535 ± 0.74. Turning to CLPNTST, the amyloid nucleation score was 0.075 ± 0.2.

Take CLQFLSRYRVWPSHSFWGEY: the amyloid nucleation score amounted to 3.68 ± 0.07.

With CLQSPLYFDWGSGIQISNWL, the amyloid nucleation score entry was “inactive”. The result for CLRGDNKISLDRSGGMTFGQ reads 1.79 ± 0.18; that for CLSCANL, 0.486 ± 0.66. As for CLSDNC, the amyloid nucleation score is -0.13 ± 0.74. CLSLSLVMSVGVLKSISQYS displayed an amyloid nucleation score of -0.017 ± 1.
